Data set [1] has as its target T1, Fluorogenic peptide substrate ENLYFQRGGK with R at P1'.
T1 chain: ENLYFQRGGK

Data set [2] concerns the target T2, Fluorogenic peptide substrate ENLYFQEGGK with E at P1'.
T2 chain: ENLYFQEGGK

The target in data set [3] is T3, Fluorogenic peptide substrate ENLYFQKGGK with K at P1'.
T3 chain: ENLYFQKGGK

The target of data set [4] is T4, Fluorogenic peptide substrate ENLYFQIGGK with I at P1'.
T4 chain: ENLYFQIGGK

Data set [5] concerns the target T5, Fluorogenic peptide substrate ENLYFQLGGK with L at P1'.
T5 chain: ENLYFQLGGK

The target in data set [6] is T6, Fluorogenic peptide substrate ENLYFQVGGK with V at P1'.
T6 chain: ENLYFQVGGK

In data set [7] the target is T7, Fluorogenic peptide substrate ENLYFQTGGK with T at P1'.
T7 chain: ENLYFQTGGK

Data set [8] addresses T8, Fluorogenic peptide substrate ENLYFQGGGK with G at P1'.
T8 chain: ENLYFQGGGK

B1: TEV protease double mutant DM (SEQ ID NO:1 with S153N and R203G) (protein)
chain: GTHHHHHHGSGSGTGESLFKGPRDYNPISSSICHLTNESDGHTTSLYGIGFGPFIITNKHLFRRNNGTLLVQSLHGVFKVKDTTTLQQHLVDGRDMIIIRMPKDFPPFPQKLKFREPQREERICLVTTNFQTKSMSSMVSDTSCTFPSSDGIFWKHWIQTKDGQCGNPLVSTRDGFIVGIHSASNFTNTNNYFTSVPKNFMELLTNQEAQQWVSGWGLNADSVLWGGHKVFMNKPEEPFQPVKEATQLMN
Turning to B1, the Km (Michaelis Menten kinetics, fluorogenic peptide cleavage) stood at 47.2 µM in data set [1]; 41 µM in data set [2]; 13.8 µM in data set [3]; 45.9 µM in data set [4]; 23.2 µM in data set [5]; 45.8 µM in data set [6]. The figures for the Km (Michaelis Menten kinetics, fluorogenic peptide cleavage) in data set [7] and in data set [8] were 7 µM and 13.7 µM, respectively.

B2: TEV protease variant P1-M218F (SEQ ID NO:1 with Q74L, S135G, I138T, S153N, R203G and M218F) (protein)
chain: GESLFKGPRDYNPISSSICHLTNESDGHTTSLYGIGFGPFIITNKHLFRRNNGTLLVQSLHGVFKVKDTTTLQLHLVDGRDMIIIRMPKDFPPFPQKLKFREPQREERICLVTTNFQTKSMSSMVSDTSCTFPSGDGTFWKHWIQTKDGQCGNPLVSTRDGFIVGIHSASNFTNTNNYFTSVPKNFMELLTNQEAQQWVSGWGLNADSVLWGGHKVFFNKPEEPFQPVKEATQLMN
For B2, the Km (Michaelis Menten kinetics, fluorogenic peptide cleavage) in data set [1] was determined as 14.5 µM; in data set [2], 1.5 µM; in data set [3], 7.4 µM; in data set [4] it was 5.3 µM; in data set [5], 2.2 µM; in data set [6], 2.5 µM. Besides, the Km (Michaelis Menten kinetics, fluorogenic peptide cleavage) came out at 1.1 µM in data set [7] and 2.9 µM in data set [8].

The values above are taken from patent US20260139239.
